Series [1] deals with T1, 2PT-NBD1 (human CFTR NBD1, residues 387–646, S492P/A534P/I539T) (Homo sapiens (human), CFTR M470 allele …, S492P | A534P | I539T, biotin (in the ELISA; site not stated)).
T1 construct: In the crystals treated with papain (6GJU) or subtilisin (6GJQ) parts of the domain were cleaved off (6GJU lacks residues 389–447); source: E. coli BL21(DE3) pLysS, purified (HisTrap, Ulp1 cleavage, Superdex 200); not shown: His6, N-terminal, cleaved; SUMO, N-terminal, cleaved
As to the kind of experiment: ITC; nanobody titrated into 2PT-NBD1; NanoITC, 20 °C; 20 mM Hepes pH 7.5, 150 mM NaCl, 10% glycerol, 10% ethylene glycol, 2 mM ATP, 3 mM MgCl2; one-site binding model. The conditions noted are these: both partners purified. In general terms: Isothermal titration calorimetry measures the heat released or taken up as one component is titrated into another.

Series [2] has as its target T1, 2PT-NBD1 (human CFTR NBD1, residues …). As to the kind of experiment: cell-based or functional assay.
Series [3] has as its target T2, human wt-CFTR stably overexpressed in BHK-21 cells (human, UniProt P13569).
T2 construct: human CFTR, wild type, full length, in BHK-21 cells; also called cellular CFTR; FL-CFTR; source: BHK-21 cells, stably overexpressing; in permeabilised cells (flow cytometry) and solubilised with 1% DMNG (pull-down)
As to the kind of experiment: flow cytometry on cells; BHK-21 cells stably overexpressing human wt-CFTR or 2PT-F508del-CFTR, permeabilised with 0.01% β-DDM on ice; 50 µg ml^−1 nanobody; detection by anti-His6 or anti-cMyc antibody and anti-mouse-Alexa Fluor 488. Conditions: one partner purified. For orientation: Flow cytometry measures light scatter and fluorescence of single cells or particles in a stream.

6 molecules from paper PMC6572788 (Nature Communications, 2019) can be followed below.

T2 sequence (P13569 whole entry): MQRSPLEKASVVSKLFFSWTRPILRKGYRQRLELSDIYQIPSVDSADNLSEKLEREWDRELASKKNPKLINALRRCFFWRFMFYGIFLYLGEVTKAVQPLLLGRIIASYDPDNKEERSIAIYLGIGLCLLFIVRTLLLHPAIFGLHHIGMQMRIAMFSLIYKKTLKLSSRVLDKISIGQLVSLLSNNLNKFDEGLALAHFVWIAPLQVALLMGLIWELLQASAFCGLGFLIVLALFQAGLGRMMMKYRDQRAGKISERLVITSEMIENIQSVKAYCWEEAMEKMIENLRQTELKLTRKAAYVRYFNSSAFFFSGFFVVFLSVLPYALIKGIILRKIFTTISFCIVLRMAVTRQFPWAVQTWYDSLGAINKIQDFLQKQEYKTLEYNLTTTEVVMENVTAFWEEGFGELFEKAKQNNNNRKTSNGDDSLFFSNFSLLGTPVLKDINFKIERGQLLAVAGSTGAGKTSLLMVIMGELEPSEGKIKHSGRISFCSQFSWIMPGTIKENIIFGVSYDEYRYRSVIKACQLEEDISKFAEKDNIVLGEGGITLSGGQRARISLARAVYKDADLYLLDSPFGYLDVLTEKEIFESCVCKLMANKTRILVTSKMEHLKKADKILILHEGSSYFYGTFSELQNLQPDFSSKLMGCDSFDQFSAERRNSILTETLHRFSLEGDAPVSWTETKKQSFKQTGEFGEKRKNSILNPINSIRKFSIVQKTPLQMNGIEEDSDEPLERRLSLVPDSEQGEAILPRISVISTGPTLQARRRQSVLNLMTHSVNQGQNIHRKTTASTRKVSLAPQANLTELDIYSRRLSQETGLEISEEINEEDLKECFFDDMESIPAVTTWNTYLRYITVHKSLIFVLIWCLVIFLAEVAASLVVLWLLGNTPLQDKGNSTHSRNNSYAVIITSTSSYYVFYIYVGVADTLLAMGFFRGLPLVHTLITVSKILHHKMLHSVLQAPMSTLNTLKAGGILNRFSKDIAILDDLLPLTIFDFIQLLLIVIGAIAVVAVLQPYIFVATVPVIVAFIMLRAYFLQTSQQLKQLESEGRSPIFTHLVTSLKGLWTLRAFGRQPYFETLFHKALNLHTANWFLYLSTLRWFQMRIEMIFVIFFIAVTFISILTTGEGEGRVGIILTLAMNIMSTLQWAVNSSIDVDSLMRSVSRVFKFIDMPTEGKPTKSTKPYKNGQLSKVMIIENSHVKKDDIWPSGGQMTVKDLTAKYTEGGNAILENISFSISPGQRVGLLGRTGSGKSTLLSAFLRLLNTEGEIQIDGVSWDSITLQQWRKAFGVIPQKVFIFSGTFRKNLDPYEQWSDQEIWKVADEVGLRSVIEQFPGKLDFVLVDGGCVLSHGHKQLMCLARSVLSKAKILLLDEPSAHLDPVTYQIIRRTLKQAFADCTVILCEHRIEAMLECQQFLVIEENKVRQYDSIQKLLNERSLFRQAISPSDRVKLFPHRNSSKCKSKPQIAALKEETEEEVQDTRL
T1 sequence (P13569 387-646 V470M/S492P/A534P/I539T): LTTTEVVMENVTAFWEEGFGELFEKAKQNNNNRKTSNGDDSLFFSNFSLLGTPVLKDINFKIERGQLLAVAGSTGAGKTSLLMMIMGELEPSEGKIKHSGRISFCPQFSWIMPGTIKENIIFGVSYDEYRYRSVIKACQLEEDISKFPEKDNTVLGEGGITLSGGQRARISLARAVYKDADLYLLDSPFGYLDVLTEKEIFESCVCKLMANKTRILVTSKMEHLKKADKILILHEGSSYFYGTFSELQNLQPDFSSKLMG

B1: nanobody T4 (VHH)
VHH: QVQLQESGGGLVQAGGSLRLSCAASGSTFAIIAMGWYRQAPGKQRELVAVISTGDTRYADSVKGRFTISRDNAKNTVYLQMDSLRPEDTAVYYCNAAVQVRDYRNYWGQGTQVTVSS
notes: pXAP100 vector, C-terminal His6-cMyc tag; source: E. coli BL21(DE3) pLysS, periplasmic extract, purified (Ni-NTA, SEC); not shown: His6, C-terminal, kept; cMyc, C-terminal, kept
For B1, in series [1], the Kd was determined as 37.9 nM and the “stoichiometry N” value was 1. In series [2], the “increase of the apparent Tm of 2PT-NBD1 by thermal shift assay (DSF; 10 µM NBD1, 30 µM nanobody)” value was 12.5 °C. In series [3], the binding result is on record as “binds”.

B2: nanobody D12 (VHH)
VHH: QVQLQESGGGLVQAGSSLRLACAATGSIRSINNMGWYRQAPGKQRGMVAIITRVGNTDYADSVKGRFTISRDNAKNTVYLQMNSLKPEDTATYYCHAEITEQSRPFYLTDDYWGQGTQVTVSS
notes: as for B1
For B2, the “increase of the apparent Tm of 2PT-NBD1 by thermal shift assay (DSF; 10 µM NBD1, 30 µM nanobody)” value in series [2] worked out at 13.8 °C. In series [3], the binding result is recorded as “binds”.

B3: nanobody T27 (VHH)
VHH: QVQLQESGGGLEQPGGSLRLSCATSGVIFGINAMGWYRQAPGKQRELVATFTSGGSTNYADFVEGRFTISRDNAKNTVYLQMNGLRPEDTAVYYCHATVVVSRYGLTYDYWGQGTQVTVSS
notes: as for B1
Regarding B3, in series [1], the Kd came to 25 nM and the “stoichiometry N” value was 1. Also, the “increase of the apparent Tm of 2PT-NBD1 by thermal shift assay (DSF; 10 µM NBD1, 30 µM nanobody)” value in series [2] worked out at 11.9 °C. Besides, in series [3], the binding result is “binds”.

B4: nanobody G3a (VHH)
VHH: QVQLQESGGGLVQAGGSLRLSCTASGRAFSWYVMGWFRQAPGKEREFVATVSGNGSRRDYADSVKGRFTISRDNAKNTVYLQMNSLKPEDTAVYYCAASSTYYYTDPEKYDYWGQGTQVTVSS
notes: as for B1
On to B4, for which, in series [1], binding was characterised by a dissociation constant (Kd) of 1100 nM and the “stoichiometry N” value came out at 1. Also, the binding result in series [3] is “binds”.

B5: nanobody T8 (VHH)
VHH: QVQLQESGGGLVQPGGSLRLSCAASGSTSSINAMGWYRQAPGKQREPVAISSSGGDTRYAEPVKGRFTISRDNAQNKVYLQMNSLKPEDTAVYYCWLNWGRTSVNSWGQGTQVTVSS
notes: as for B1
On to B5, for which, in series [1], binding was put at a Kd of 39 nM and the “stoichiometry N” value turned out to be 1. Moreover, the “increase of the apparent Tm of 2PT-NBD1 by thermal shift assay (DSF; 10 µM NBD1, 30 µM nanobody)” value in series [2] amounted to 9.1 °C. Also, the binding result in series [3] is recorded as “binds”.

B6: nanobody T2a (VHH)
VHH: QVQLQESGGGLVQAGGSLRLSCAASGSIFRIDAMGWYRQAPGKQRELVAHSTSGGSTDYADSVKGRFTISRDNAKNTVYLQMNSLKPEDTAVYYCNADVRTRWYASNNYWGQGTQVTVSS
notes: as for B1
Regarding B6, in series [1], the equilibrium dissociation constant (Kd) worked out at 54 nM and the “stoichiometry N” value came to 1. Also, in series [2], the “increase of the apparent Tm of 2PT-NBD1 by thermal shift assay (DSF; 10 µM NBD1, 30 µM nanobody)” value worked out at 11.2 °C. Also, the binding result in series [3] is given as “binds”.

In general, Kd refers to the concentration at which binding is half-saturated. In general, stoichiometry N refers to a count of units in the complex or per binding partner.
